Measurements as given in patent US20240400703A1 (Genmab, published 2024).

T1: recombinant human OX40 fused to a His-tag (Acro Biosystems, cat. no. OX0-H5224) (human, UniProt P43489 29-214)
T1 construct: bought protein; also called sOX40; soluble OX40; not shown: His-tag
T1 sequence: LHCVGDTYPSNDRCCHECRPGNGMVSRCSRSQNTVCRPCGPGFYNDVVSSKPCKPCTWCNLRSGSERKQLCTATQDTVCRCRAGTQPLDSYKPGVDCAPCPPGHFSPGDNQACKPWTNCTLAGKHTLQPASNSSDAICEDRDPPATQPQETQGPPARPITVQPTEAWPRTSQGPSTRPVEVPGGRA

T2: His-tagged human recombinant FcγRIIa 167-His (Sino Biological, cat. no. 10374-H08H1) (human, UniProt P12318 34-218)
T2 construct: also called FcγRIIa[H]
T2 sequence (looked up): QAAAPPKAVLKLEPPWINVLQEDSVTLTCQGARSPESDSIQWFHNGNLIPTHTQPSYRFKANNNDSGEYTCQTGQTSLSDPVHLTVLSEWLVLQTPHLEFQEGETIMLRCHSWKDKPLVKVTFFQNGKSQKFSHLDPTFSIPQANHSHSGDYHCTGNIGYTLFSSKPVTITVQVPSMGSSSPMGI

T3: His-tagged human recombinant FcγRIIb (Sino Biological, cat. no. 10259-H27H-B) (human, UniProt P31994 43-217)
T3 construct: also called FcγRII2b [sic]
T3 sequence (looked up): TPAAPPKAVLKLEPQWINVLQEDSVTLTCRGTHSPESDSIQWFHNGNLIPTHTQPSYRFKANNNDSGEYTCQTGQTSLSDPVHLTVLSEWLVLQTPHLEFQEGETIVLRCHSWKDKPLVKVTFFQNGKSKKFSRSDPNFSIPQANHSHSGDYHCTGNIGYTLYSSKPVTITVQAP


Key:
[1] = biological target: T1, recombinant human OX40 fused to a …; experiment: BLI cross-block; first Ab (competitor): IgG1-CD134-003
Procedure: (§1) Experiments were carried out while shaking at 1,000 RPM and at 30° C.
(§2) Amine Reactive 2nd Generation (AR2G) biosensors (Sartorius, cat. no. 18-5092) were activated for 300 s with a solution of 20 mM EDC (N-(3-Dimethylaminopropyl)-N-ethylcarbodiimide hydrochloride; Sartorius, cat. no. 18-1033) and 10 mM s-NHS (N-hydroxysulfosuccinimide sodium salt; Sartorius, cat. no. 18-1067). […] After a baseline measurement in Sample Diluent (Sartorius, cat. no. 18-1104) for 50 s, the AR2G biosensors containing immobilized antibody were loaded for 300 s with human OX40 fused to a His-tag (100 nM diluted in Sample Diluent; Acro Biosystems, cat. no. OX0-H5224). The association (300 s) of a second antibody (10 μg/mL in Sample Diluent) was determined. Sensors were regenerated by three cycles of exposure to 10 mM Glycine (Sigma-Aldrich, cat. no. 15527) buffer pH 2.5 for 5 s followed by neutralization in Sample Diluent for 5 s.
(§3) Data were acquired using Data Acquisition Software v12.0 (Sartorius) and analyzed with Data Analysis HT Software v12.0 (Sartorius). Data traces were corrected by subtraction of a reference curve (Sample Diluent instead of second antibody) in order to correct for the dissociation of antigen from the immobilized first antibody. The Y-axis was aligned to the start of the association step and Savitzky-Golay filtering was applied. The corrected association responses of the second antibodies were plotted in a matrix format (Table 5). Responses ≥0.1 nm were considered non-blocking antibody pairs, while responses <0.1 were considered blocking antibody pairs.

[2] = biological target: T1, recombinant human OX40 fused to a …; experiment: BLI cross-block; first Ab (competitor): IgG1-CD134-11D4
Procedure: as §2, §3

[3] = biological target: T1, recombinant human OX40 fused to a …; experiment: BLI cross-block; first Ab (competitor): IgG1-CD134-h3C8
Procedure: as §2, §3

[4] = biological target: T1, recombinant human OX40 fused to a …; experiment: BLI cross-block; first Ab (competitor): IgG1-CD134-GBR830
Procedure: as §1, §2, §3

[5] = biological target: T1, recombinant human OX40 fused to a …; experiment: BLI cross-block; first Ab (competitor): IgG1-CD134-49B4-RRE
Procedure: as §1, §2, §3

[6] = biological target: T1, recombinant human OX40 fused to a …; experiment: BLI cross-block; first Ab (competitor): IgG1-CD134-MEDI0562
Procedure: as §2, §3

[7] = biological target: T1, recombinant human OX40 fused to a …; experiment: BLI cross-block; first Ab (competitor): IgG1-CD134-INCAGN1949
Procedure: as §1, §2, §3

[8] = biological target: T1, recombinant human OX40 fused to a …; experiment: BLI cross-block; first Ab (competitor): IgG1-CD134-003-HC6LC2-RR
Procedure: as §2, §3

[9] = biological target: His-tagged human recombinant FcγRIa (Sino Biological, cat. no. 10256-H08S-B) (human, UniProt P12314 16-288); experiment: SPR, His-tagged FcγR captured on anti-His chip, antibody injected
Procedure: (§4) Biacore Series S Sensor Chips CM5 (Cytiva, cat. no. 29104988) were covalently coated with anti-His antibody using amine-coupling and His capture kits (Cytiva, cat. no. BR100050 and cat. no. 29234602) according to the manufacturer's instructions. […] After three start-up cycles of HBS-EP+ buffer, antibody samples were injected for 12 cycles per sample to generate binding curves using antibody concentration ranges of 0 to 3,000 nM for FcγRIa and 0 to 10,000 nM for the other FcγRs.
(§5) Dissociation from the anti-His-coated surface was performed by regeneration of the surface using 10 mM Glycine-HCl pH 1.5 (Cytiva, cat. no. BR100354).

[10] = biological target: T2, His-tagged human recombinant FcγRIIa …; experiment: as above
Procedure: as §4, §5

[11] = biological target: T3, His-tagged human recombinant FcγRIIb …; experiment: as above
Procedure: as §4, §5

His-tagged human recombinant FcγRIa (Sino Biological, cat. no. 10256-H08S-B), sequence (P12314 16-288 limits assumed, stated change not applied): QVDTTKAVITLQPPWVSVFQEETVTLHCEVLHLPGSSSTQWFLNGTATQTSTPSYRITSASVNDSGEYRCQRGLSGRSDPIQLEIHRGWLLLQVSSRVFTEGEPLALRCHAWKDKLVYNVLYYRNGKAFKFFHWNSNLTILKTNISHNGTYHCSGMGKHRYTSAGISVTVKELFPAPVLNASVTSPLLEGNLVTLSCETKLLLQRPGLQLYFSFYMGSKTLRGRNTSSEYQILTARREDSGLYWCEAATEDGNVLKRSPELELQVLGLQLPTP

Row | Binder | association response [1] [nm] | association response [2] [nm] | association response [3] [nm] | association response [4] [nm] | association response [5] [nm] | association response [6] [nm] | association response [7] [nm] | association response [8] [nm] | binding result [9] | binding result [10] | binding result [11]
1 | IgG1-CD134-003-HC6LC2-P329R-E345R (antibody, humanized; human IgG1 with P329R and E345R (Eu numbering), kappa; also called IgG1-CD134-003-HC6LC2-RR) heavy: not shown light: AAVLTQSPSSLSASVGDRVTITCQSSQIVVNNNFLSWYQQKPGKAPKLLIYDASNLASGVPDRFSGSGSGTDFTFTISSLQPEDIATYYCLGGYDDDAENAFGGGTKVEIKRTVAAPSVFIFPPSDEQLKSGTASVVCLLNNFYPREAKVQWKVDNALQSGNSQESVTEQDSKDSTYSLSSTLTLSKADYEKHKVYACEVTHQGLSSPVTKSFNRGEC | 0.04 | 0 | 0.5 | 0.19 | 0.25 | 0.34 | 0.19 | 0 | binds | no binding (tested: 10,000 nM) | no binding (tested: about 5,000 nM)
2 | IgG1-CD134-003 (antibody, rabbit-human chimeric IgG1, wild-type Fc; also called parental chimeric antibody) heavy: not shown light: AAVLTQTPSPVSAAVGGTVTIKCQSSQIVVNNNFLSWYQQKPGQPPKLLIYDASNLASGVPDRFSGSGSGTQFTLTISGVQSDDAATYYCLGGYDDDAENAFGGGTEVVVQRTVAAPSVFIFPPSDEQLKSGTASVVCLLNNFYPREAKVQWKVDNALQSGNSQESVTEQDSKDSTYSLSSTLTLSKADYEKHKVYACEVTHQGLSSPVTKSFNRGEC | 0.02 | 0.01 | 0.46 | 0.2 | 0.2 | 0.3 | 0.15 | -0.03 |  |  | 
3 | IgG1-CD134-007 (antibody, rabbit-human chimeric IgG1) heavy: not shown light: AQVLTQTPSPVSAAVGGTVTISCQSSESVWNNNWLAWYQQKPGQPPNLLIYEASTLASGVSSRFKGSGSGTQFTLTVSEVQSDDAATYYCQGGYYDSSPIWTFGGGTEVVVKRTVAAPSVFIFPPSDEQLKSGTASVVCLLNNFYPREAKVQWKVDNALQSGNSQESVTEQDSKDSTYSLSSTLTLSKADYEKHKVYACEVTHQGLSSPVTKSFNRGEC | -0.02 | 0.15 | -0.02 | 0 | 0 | 0.32 | 0.06 | -0.07 |  |  | 
4 | IgG1-CD134-012 (antibody, rabbit-human chimeric IgG1) heavy: not shown light: DIVMTQTPASVEAAVGGTVTIKCQASENIYSSLAWYQQKPGQPPKLLIYRTSTLASGVPSRFKGSGSGTQFTLTISDLESDDAATYYCQSYYHNSGGGYDYGFGGGTEVVAKRTVAAPSVFIFPPSDEQLKSGTASVVCLLNNFYPREAKVQWKVDNALQSGNSQESVTEQDSKDSTYSLSSTLTLSKADYEKHKVYACEVTHQGLSSPVTKSFNRGEC | 0 | 0 | 0.35 | 0.16 | 0.1 | 0.23 | 0.07 | 0.03 |  |  | 
